Results published in patent US11788108B2, “CMP-dependent sialidase activity” (Roche Diagnostics Operations, Inc., priority 2014, dated 2023).
One block for each molecule: values may come before it.

Experiments:
[1] = target: T1, α-2,6-sialyltransferase from rat liver (Rattus norvegicus, UniProt P13721); settings: each inhibitor at 0.25 mM; cited from earlier work
T1 construct: host or cells: rat liver
T1 sequence (P13721 1-403): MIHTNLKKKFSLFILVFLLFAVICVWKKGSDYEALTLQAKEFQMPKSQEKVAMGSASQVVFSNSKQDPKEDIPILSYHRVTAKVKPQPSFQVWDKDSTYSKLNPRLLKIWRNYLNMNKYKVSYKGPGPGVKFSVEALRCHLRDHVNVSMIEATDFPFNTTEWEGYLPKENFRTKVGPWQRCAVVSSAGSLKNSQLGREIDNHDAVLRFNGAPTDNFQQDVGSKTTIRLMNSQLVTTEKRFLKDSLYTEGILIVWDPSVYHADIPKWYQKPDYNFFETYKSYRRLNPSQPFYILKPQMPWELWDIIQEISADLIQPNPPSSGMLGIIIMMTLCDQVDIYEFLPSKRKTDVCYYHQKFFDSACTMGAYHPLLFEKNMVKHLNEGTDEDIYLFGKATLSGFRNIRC

[2] = target: T2, Δ89 hST6Gal-I (Homo sapiens, UniProt P15907); experiment: Inhibition of sialidase activity of Δ89 hST6Gal-I by CTP; format: biochemical
T2 construct: Erythropoietin signal peptide (Epo) (N, cleaved yes); AP spacer (N, cleaved yes); made in house; host or cells: HEK 293 cells (transient expression, secreted)
T2 sequence (P15907 90-406): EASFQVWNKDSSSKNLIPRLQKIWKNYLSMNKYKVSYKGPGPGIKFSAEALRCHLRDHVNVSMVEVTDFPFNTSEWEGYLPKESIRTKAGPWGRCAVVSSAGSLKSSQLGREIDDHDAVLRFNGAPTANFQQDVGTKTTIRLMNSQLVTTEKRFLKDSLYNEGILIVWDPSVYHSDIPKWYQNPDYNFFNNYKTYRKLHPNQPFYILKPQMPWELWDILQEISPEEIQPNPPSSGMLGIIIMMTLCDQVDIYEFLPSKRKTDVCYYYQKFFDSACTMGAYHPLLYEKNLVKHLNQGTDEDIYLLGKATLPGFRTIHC
Description: The compound cytidine-5′-triphosphate (CTP) is a known potent inhibitor of sialyltransferases (Scudder P R & Chantler E N BBA 660 (1981) 136-141). […] In the first phase of the experiment the sialylation of IgG4 MAB by Δ89 hST6Gal-I was performed to achieve a high content of G2+2SA (see Example 10). After 7 h of incubation the G2+2SA content was 94%. Subsequently, CTP was added to inhibit the sialidase activity of Δ89 hST6Gal-I (final concentration of CTP: 0.67 mM). At different times samples were taken and the content of G2+0SA, G2+1SA and G2+2SA was determined by mass spectrometry. […] After 72 h of incubation 73% of G2+2SA were still present.

[3] = test system: asialofetuin; experiment: Test for sialyltransferase enzymatic activity (transfer of sialic acid from CMP-9-fluoro-NANA to asialofetuin); format: biochemical; settings: recombinant enzyme purified from HEK cells
Description: Asialofetuin (desialylated fetuin, Roche Applied Science) was used as acceptor and CMP-9-fluoro-NANA (CMP-9-fluoresceinyl-NeuAc) was used as donor substrate (Brossmer, R. & Gross H. J. (1994) Meth. Enzymol. 247, 177-193). Enzymatic activity of a sialyltransferase was determined by measuring the transfer of sialic acid from the donor compound to asialofetuin. The reaction mix (35 mM MES, pH 6.0, 0.035% TRITON™ X-100 (C16H26O2), 0.07% BSA) contained 2.5 μg of enzyme sample, 5 μL asialofetuin (20 mg/mL) and 2 μL CMP-9-fluoro-NANA (1.0 mg/mL) in a total volume of 51 μL. The reaction mix was incubated at 37° C. for 30 min. The reaction was stopped by the addition of 10 μL of the inhibitor CTP (10 mM). The reaction mix was loaded onto a PD10 desalting column equilibrated with 0.1 M Tris/HCl, pH 8.5. Fetuin was eluted from the column using the equilibration buffer. The fractions size was 1 mL. The concentration of formed fetuin was determined using a fluorescence spectrophotometer. Excitation wave length was 490 nm, emission was measured at 520 nm. Enzymatic activity was expressed as RFU (relative fluorescence unit). 10,000 RFU/μg is equivalent to a specific activity of 0.0839 nmol/μg×min.

[4] = test system: IgG1 MAB G2+2SA; experiment: Sialidase activity on IgG1 MAB G2+2SA in the presence and absence of CMP; format: biochemical; settings: for sialidase activity in the presence of CMP: CMP 10-fold molar excess, 37° C., pH 6.5, 125 μg enzyme/1,250 μg IgG1 MAB
Description: Cytidine monophosphate (5′-CMP, =CMP) is a product of the reaction catalyzed by sialyltransferase enzymes, generated in the course of the glycosyltransferase reaction from the co-substrate CMP-NANA. With incubation time of a sialylation reaction CMP accumulates in the reaction mixture.
To an amount of 1,250 μg (in 194 μL) highly sialylated IgG1 MAB according to Example 12 with an incubation period for sialylation of 8 h, 125 μg sialyltransferase variant (30 μg/300 μg IgG1 MAB) was added.
Different N-terminally truncated hST6Gal-I enzyme variants were tested for CMP-dependent sialidase activity: • Δ89 hST6Gal-I (Example 9) • Δ108 hST6Gal-I (Example 9) • Δ57 hST3Gal-I (obtained from R&D Systems)
Four different experiments were made using Δ89 hST6Gal-I (16.8 μL with 125 μg), Δ108 hST6Gal-I (17.3 μL with 125 μg), Δ57 hST3Gal-I (20.1 μL with 125 μg) and a negative control (no enzyme, 20.1 μL ultrapure water). The enzymes were tested for sialidase activity in the absence and presence of CMP (10-fold excess based on molarity). The concentrations were as shown as follows:
The samples were incubated at 37° C. in 20 mM sodium citrate, 35 mM Tris pH 6.5. Aliquots were taken as samples after different incubation times, and were analyzed.
To analyze the degree of sialylation of IgG1 MAB in the samples, 124 μL denaturing buffer (6 M Guanidinium chloride in water) and 30 μL TCEP (=tris(2-carboxyethyl)phosphine; 0.1 mM, diluted in denaturing buffer) were added to 76 μL (corresponding to 250 μg IgG1 MAB) and the sample was incubated at 37° C. for 1 h. After that the sample was buffered in electrospray medium (20% ACN (=acetonitrile), 1% FA (=formamide)) using pre-equilibrated ILLUSTRA™ NAP™5-Columns (GE-Healthcare). Subsequently the sample was analyzed by electrospray ionization mass spectrometry and the content of G2+0SA, G2+1SA and G2+2SA N-glycans was determined. A Synapt G2 HDMS device (Waters UK) was used, the software used was MassLynx V 4.1.

[5] = test system: IgG4 MAB; experiment: Sialylation of humanized monoclonal antibody IgG4 MAB using Δ89 hST6Gal-I, mass spectrometry; format: biochemical
Description: A highly galactosylated humanized monoclonal antibody IgG4 MAB was used in sialylation experiments. The reaction mixture contained IgG4 MAB (300 μg in 55 μL 35 mM sodium actetate/Tris buffer pH 7.0), the donor substrate CMP-NANA (150 μg in 50 μL water) and sialyltransferase (30 μg Δ89 hST6Gal-I in 20 mM potassium phosphate, 0.1 M NaCl, pH 6.5). The samples were incubated at 37° C. for a defined time. To stop the reaction the samples were frozen at −20° C. For mass analysis 100 μL denaturing buffer (6 M guanidinium chloride) and 30 μL TCEP (=tris(2-carboxyethyl)phosphine; 0.1 mM, diluted in denaturing buffer) were added to the samples and the samples were incubated at 37° C. for 1 h. The samples were buffered in electrospray medium [20% ACN (=acetonitrile), 1% FA (=formamide)] using pre-equilibrated Illustra™ Nap5-Columns (GE-Healthcare). Samples were analyzed by electrospray ionization mass spectrometry and the content of G2+0SA, G2+1SA and G2+2SA N-glycans was determined. A Micromass Q-Tof Ultima and a Synapt G2 HDMS device (Waters UK) were used, the software used was MassLynx V 4.1. To determine the kinetics of the sialylation the reaction was incubated up to 72 h.

[6] = target: T3, CMP-dependent sialidase activity of Δ89 hST6Gal-I (Homo sapiens, UniProt P15907); experiment: Sialylation of IgG4 MAB using Δ89 hST6Gal-I in the presence of phosphatase enzymatic activity; format: biochemical; settings: CMP degraded by dephosphorylating enzymes
T3 construct: Erythropoietin signal peptide (Epo) (N, cleaved yes); AP spacer (N, cleaved yes); made in house; host or cells: HEK 293 cells (transient expression, secreted)
T3 sequence (P15907 90-406): T2 sequence (P15907 90-406)
Description: Suppression of CMP-dependent sialidase activity of Δ89 hST6Gal-I was studied by continuous removal of CMP formed during the reaction.
In the experiments the enzymes (i) 5′-nucleotidase (EC 3.1.3.5) having a wide specificity for 5′-nucleotides, and (ii) alkaline phosphatase (EC 3.1.3.1) (both provided by commercial suppliers) were used. The particular 5′-nucleotidase used here is also known as ecto-5′-nucleotidase or CD73 (Cluster of Differentiation 73), in humans encoded by the NT5E gene. Both enzymes dephosphorylate CMP, i.e. catalyze hydrolysis of the phosphoester bond in CMP. In the experiments of this Example the enzymes were used to degrade CMP generated by the sialyltransferase reaction from the co-substrate CMP-NANA.
To 1,000 μg IgG4 MAB (182 μL) 500 μg CMP-NANA (3 mg/mL, 166.7 μL), 100 μg Δ89 hST6Gal-I (13.4 μL, 30 μg/300 μg IgG4 MAB) and different amounts of nucleotidase (Nu) and alkaline phosphatase (AP) were added. As Zn^2+ ions are essential for the activity of AP, these were added to a final concentration of 0.1 mM). The buffer used was 20 mM sodium acetate/Tris, pH 6.5. […]
After addition of the respective amounts of enzymes the samples were incubated at 37° C. […] Then the sample was analyzed by electrospray ionization mass spectrometry, and the content of G2+0SA, G2+1SA and G2+2SA N-glycans was determined. […]

Molecule: Nc1ccn([C@@H]2O[C@H](CO)[C@@H](O)[C@H]2OP(=O)(O)O)c(=O)n1 [2′-CMP]
inhibition of α-2,6-sialyltransferase [1]: 40%

Molecule: Nc1ccn([C@@H]2O[C@H](CO)[C@@H](OP(=O)(O)O)[C@H]2O)c(=O)n1 [3′-CMP]
inhibition of α-2,6-sialyltransferase [1]: 39%

degradation of G2+2SA caused by the sialidase activity ([2]; CTP 0.67 mM, compared to inhibitor-free conditions): significantly reduced
G2+2SA still present ([2]; after 72 h of incubation, CTP final concentration 0.67 mM added after 7 h): 73%
Molecule: Nc1ccn([C@@H]2O[C@H](COP(=O)(O)OP(=O)(O)OP(=O)(O)O)[C@@H](O)[C@H]2O)c(=O)n1 [CTP, cytidine-5′-triphosphate]

B1: Δ108 hST6Gal-I: soluble human β-galactoside-α-2,6-sialyltransferase I variant lacking N-terminal amino acids from position 1 to 108 (protein)
chain: LQKIWKNYLSMNKYKVSYKGPGPGIKFSAEALRCHLRDHVNVSMVEVTDFPFNTSEWEGYLPKESIRTKAGPWGRCAVVSSAGSLKSSQLGREIDDHDAVLRFNGAPTANFQQDVGTKTTIRLMNSQLVTTEKRFLKDSLYNEGILIVWDPSVYHSDIPKWYQNPDYNFFNNYKTYRKLHPNQPFYILKPQMPWELWDILQEISPEEIQPNPPSSGMLGIIIMMTLCDQVDIYEFLPSKRKTDVCYYYQKFFDSACTMGAYHPLLYEKNLVKHLNQGTDEDIYLLGKATLPGFRTIHC
modifications: delta108 truncation variant of hST6Gal-I
specific activity [3]: > 600 RFU/pg
sialidase activity in the presence of CMP [4]: did not show any sialidase activity

degradation of G2+2SA without CMP ([4]; reaction mixture without CMP, incubation for 46 h): no degradation
B2: Δ89 hST6Gal-I: human β-galactoside-α-2,6-sialyltransferase I variant with truncation deletion of the first 89 N-terminal amino acids (protein)
chain: T2 sequence (P15907 90-406)
modifications: delta89 truncation variant of hST6Gal-I
notes: human β-galactoside-α-2,6-sialyltransferase I variant with truncation deletion of the first 89 N-terminal amino acids
specific activity [3]: 3.75 nmol/pg/min
sialidase activity in the presence of CMP [4]: showed a CMP-dependent sialidase activity
content of the bi-sialylated form G2+2SA ([5]; after 2 h of incubation, 37° C., 30 μg enzyme/300 μg IgG4 MAB): 88%
G2+2SA content ([5]; after 7 h of incubation, before CTP addition): 94%
G2+1SA content ([5]; after an incubation of 48 h, 37° C.): 71%
intrinsic sialidase activity in the absence of CMP [6]: no intrinsic sialidase activity
